41 sequences from the nanobody polyreactivity screen of Harvey et al. (2022) can be followed below.

A short description of the series: yeast display, Sf9 membrane polyspecificity reagent, FACS + sequencing; frameworks hold sequencing errors. The gist of the method:
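Polyreactivity labels are assigned by the sorting gate from which each nanobody was recovered. The gates were low and high (top ~1%), set on anti-HA fluorescence for expression and streptavidin fluorescence for reagent binding. Before sorting, galactose-induced (36–48 hours) yeast display cells were stained for 1 hour at 4 °C with 10% biotinylated, detergent-solubilized Sf9 membrane reagent.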
Take “QVQLVESGGGLVQAGGSLRLSCSSSGRIFLNSMGWYRQAPGKEREFVAAITRSADSTYYADSVKGRFTISRDNAKNTVYLQMNSLKPEDTAVYYCNKPFPYYPDGPNGYDYWGHGTQVTVSS”: the “polyreactivity (PSR sort gate)” value is reported as “low polyreactivity”. In the case of “QVQLQESGGGLVQAGGSLRLSCAASGTISDSGLMGWYRQAPGKERELVAGISSGGITNYADSVKGRFTISRDNAKNTVYLQMNSLKPDDTAVYWGQGTQVTVSS”, the “polyreactivity (PSR sort gate)” value was “low polyreactivity”. Regarding “QVQLVESGGGLVQAGGSLRLSCAASGSIFTTNAMGWYRQAPGKERELVSAISSRGGSTYYADSVKGRFTISRDNAKNTVYLQMNSLKPEDTAVYYCAARYRWPIPGTQYEYWGQGTQVTVSS”, the “polyreactivity (PSR sort gate)” value is given as “low polyreactivity”. On to “QVQLVESGGGLVQAGGSLRLSCAASGGIFDRYAMGWYRQAPGKERELVAGITWSGGRTYYADSVKGRFTISRDNAKNTVYLQMNSLKPEDTAVYYCAASLYTWTYQPVYYRDGYWGQGTQVTVSS”, for which the “polyreactivity (PSR sort gate)” value was “low polyreactivity”.

Consider “QVQLVESGGGLVQAGGSLRLSCAASGRIFVKYAMGWYRQARGKESELVAAISKSGGSTYYADSVKGRFTISRDNAKTTVYLQINILKPEDTAVYYCAADEYYQVSAYDYWGQGTQVTVSS”, for which the “polyreactivity (PSR sort gate)” value is given as “low polyreactivity”. In the case of “QVQLVESGGGLVQAGGSLRLSCAASGFTFYSYAMGWYRQAPGKERELVAAITRSGGNTYYADSVKGRFTISRDNAKNTVYLQMNSLKPEDTAVYYCAAPGKGISPSHYYWGQGPQVTVSS”, the “polyreactivity (PSR sort gate)” value is “high polyreactivity”.

As to “QVQLVESGGGLVQAGGSLRLSCAASGFTFSSYALGWSRQAPGKERELVAAISTRGGSTYYADSVKGRFTISRDNAKNTVYLQRNSLKPEDTADYYCATGGRGGRRYEYWGQGTQVTVSS”, the “polyreactivity (PSR sort gate)” value is recorded as “low polyreactivity”. For the sequence “QVQLVESGGGLVQAGGSLRLSCAASGRTFDVYAMGWYRQAPGKERELVATIRSDGSTTYADSVKGRFTISRDNAKNTVYLQMTSLKPEDTAVYYCAADFRSGFSSSTTPVQSDWGQGTQVTVSS”, the “polyreactivity (PSR sort gate)” value is “low polyreactivity”. For “QVQLVETGGGLVQAGGSLRLRGAASGFTFPWYAMGWYRQAPGKERELVAAISTSGDSTYYADSVKGRFTISRDNAKNTVYLQMNSLKPEDTAVYYCAARVVRGRYGYWGQGTQVTVSS”, the “polyreactivity (PSR sort gate)” value was “high polyreactivity”. For the sequence “QVQLVESGGGLVQAGGSLRLSCAASGNIFGHYAMGWYRQAPGKERELVAAISSRGGRTYYADSVKGRFTISRDNAKNTVYLQMNSLKPEDTAVYYCAHKTRQKFGYWGQGTQVTVSS”, the “polyreactivity (PSR sort gate)” value was “high polyreactivity”.

For the sequence “QVQLVESGGGLVQAGGSLRLSCAATGRIFRYYTMGWYRQAPGKERELVAAITSSSGSTYYADSVKGRFTISRDNAKNTVYLQMNSLKPEDTAVYYCNAVRYTTQTPNVDYGYWGQGTQVTVSS”, the “polyreactivity (PSR sort gate)” value is “high polyreactivity”.

Turning to “QVQLVESGGCLVHAGGSLRLSCAAYGSILKYNAIGWYIQAPGKERELVAAITSRGGSTYYADSVKGRFTISRDNAKNTVYLQMNSLKPEDTAVYYCNRVYLGYFRYDYWGQGTQVTVSS”, the “polyreactivity (PSR sort gate)” value is listed as “high polyreactivity”. Regarding “QVQLVESGGGLVQAGGSLRLSCDASGLTFRYYAMVWYRQAHGKERELDATITRAGRTNYADSVKGRFTISRDNAKNTVYFQMNRLNPEDTAVYYCNAKQSGKYPRVVGYDYWGQGTQVTVSS”, the “polyreactivity (PSR sort gate)” value is “high polyreactivity”. On to “QDLLVESAGGLVQAGGSLRLSCAASGRNFPYKAMGWYRPAPGKERELVAAISSGGSTNYADSVKGRFTTSRDNAKNTVYLQMNSLKPEDTAVYYCAVGYSYYPSDEFDYWGQGTQVTVSS”, for which the “polyreactivity (PSR sort gate)” value is “low polyreactivity”. Regarding “QVQLVESGGGLVQAGGSLRLSCAASGYVMGWYRQAPGKERELVAAITRGTSTYYADSVKGRFTISRDNAKNTVYLQMNSLKPEDTAVYYCAARTPGVSVYKDGYWGQGTQVTVSS”, the “polyreactivity (PSR sort gate)” value is “low polyreactivity”.

With “QVQLVESGGGLVQAGGSLRLSCAASGRTFARNAMGWYRQAPGKERELVASINRGGRTNYADSVKGRFTISRDNAKNTVYLQMNSLKPEDTAVYYCAKYILGVGPFFSTYDYWGQGTQVTVSS”, the “polyreactivity (PSR sort gate)” value is listed as “high polyreactivity”.

On to “QVQLVESGGGLVQAGGSLRLSCAASGSTFDINAMGWYRQAPGKERELVAAITWRSGRTYYADSVKGRFTISRDNAKNNVYLQMNSLKPEDTAVYYCAADDTSYYIYSYDYWGQGTQVTVSS”, for which the “polyreactivity (PSR sort gate)” value is reported as “low polyreactivity”. The same measure for “QVQLVESGGGLVQAGGSLRLSCAASGRIFRLYAMGWYRQAPGKERELGAAISSRGGDTYADSVKGRFTISRDNAKNTVYLQMNSLKPEDTAVYYCNDVIYYPYKSGVWYYEYDYWGQGTKVTVSS”: “low polyreactivity”; for “QVQLVESGGGLVQAGGSLRLSCAASGRTFYYYAMGWYRQAPGKERELVARIRSGGSTNYADSVKGRFTISRDNAKNTVYLQMNSLKPEDTAVYYCNALGAKGYVKGFDYWGQGTQVTVSS”: “low polyreactivity”.

For “QVQLVETGGGLVQAGGSLRLSCAASFRSNTMGGYRQAPRKERELVAAISGSGSRTYYADSVKGRFTISRDNAKKTVYLQMNSLKPEDTAVYYCAALSYRNSEVGTSRGDYWGQGTQVTVSS”, the “polyreactivity (PSR sort gate)” value was “high polyreactivity”. To “QVHLVESGGGLVQAGGSLRLSCAASGITFQRYAMGWYREAPGKERELVASISTNGGTTYYADSVKGRFTISRHNAKNTVYLQMNSLKPEDTAVYYCNAESGYVYYIRYNYWGQGTQVTVSS” belongs “high polyreactivity”; to “QVQLVESGGGLVQAGGSLRLSCAASGRTFFWYAMGWYRQAPGKERELVADISSSGGSTYYADSVKGRFTISRDNAKNTVYLQMNSLKPEDTAVYYCAALSPWWRGGYNYWGQGTQVTVSS”, “high polyreactivity”. As to “QVQLVESGGGLVQAGGPLRLSCAASGRIFWPYTMGWYRQTPGKERELVAVITYSGGSTYYADSVKGRFTISRDNAKNTVYFQMNSLKPEDTAVYYCNAGIRFYLHAHGYYWGQGTQVTVSS”, the “polyreactivity (PSR sort gate)” value was “high polyreactivity”. Regarding “QVQLVESGGGLVQAGGSLRLSCDASGFTFVYYAMGCYRQAPGKERELVAAISGRGGSTYYADSVKGRFTISRDNAKNTVYLQMNSLKPEDTAVYYCATTYSWYYVPYKTHIYYYWGQGTQVTVSS”, the “polyreactivity (PSR sort gate)” value was “low polyreactivity”. For “QVQLVESGGGLVQAGGSLRLSCAASGSILTHYAMGWYRQAPGKERELVAAITWRGGSTYYADSVKGRFTISRDNAKNTVYLQMNSLKPEDSAVYYCNADYFGGGDYWGQGTQVTVSS”, the “polyreactivity (PSR sort gate)” value is “low polyreactivity”.

As to “QVQLVESGRGLDQAGGSLRLICYASGRTFLYNAMGWFRQSPGKERELVAAIRWSGGTTYYADSVKGRFTISRDNSKNNVYLQMNSLKPEDTAIYYCAARWGQYYGGVRYGYWGQGTQVTVSS”, the “polyreactivity (PSR sort gate)” value is given as “high polyreactivity”. Take “QVQLVESGGGLVQAGGSLRLSCAASGRTFEGNAMGWSRQAPGKERELVAAISTSGGRTYYADSVKGRFTISRDNAKKSVYLQMNSLKPEDTAVYYCATSFYVYPTYYILDYWGQGTQVTVSS”: the “polyreactivity (PSR sort gate)” value is recorded as “low polyreactivity”. As for “QVQLVESGGGLVQAGGSLRLSCAASGFIFWGNAMGWYRQAPGKERELVAAISSSSGSTYYADSVKGRFTISRDNAKNTVYLQMNSLKPVDSAVYDCAVDTPRSYRAQGAYNYWGQGTQVTVSS”, the “polyreactivity (PSR sort gate)” value was “low polyreactivity”. As to “QVQLVESGGGLVQAGGSLRLSCAASGFTFRYYAMGWYRQAPGKERELVAAITRSGGSTSYADSVKGRFTISRDNAKNNVYLQMNSLKPEDTAVYYCNTSTSRVPGNGDYWGQGTQVTVSS”, the “polyreactivity (PSR sort gate)” value is given as “high polyreactivity”. The same measure for “QVQLVESGGGLVQAGGSLPLSCAASGRIFWDYDMGRYRQAHGKERELVAVITFSGDSTYYADSVKGRFTISRDNAKNTVYLQMNSLKPEDTAVYYCASARAIRQFWYVATFEYWGQGTQVTVSS”: “low polyreactivity”; for “QVQLVESGGGLVQAGGSLRLSCAASGYIFQRYTMGWYRQAPGKERELVAAITRSGGRTYYADSVKGRFTISRDNAKNTVYLQMNSLKPEDTAVYYCAVDYRTRGDYWGQGTQVTVSS”: “high polyreactivity”. In the case of “QVQLVESGGGLVQAGGSLRLSCAASGGTFRRYTMGWYRPAPGKERELVAVISRSGGSTYYADSVKGRFTISRDIAKNTVYLQMNSLKPEDTAVYYCAVVYYNGYDWGQGTQVTVSS”, the “polyreactivity (PSR sort gate)” value was “high polyreactivity”. The same measure for “QVQLVESGGGLVQAGGSLRLSCAGSGSIFSNNAMGWYRQAPGKERELVAAISASGGSTYYADSVKGRFTISRDNAKNTVYLQMNSLKPEDTAVYYCAARGYGWGQGTQVTVSS”: “high polyreactivity”; for “QVQVVESGGGLDNAGGSLGLSCAASGSIFYYNAMGWYRQAPGKERELVAAISSSGGSTYYADSVKGRFTISRDNAKNTVYLQMNSLKPEDTAVYYCAAKLRHWAHHTKYDYWGQGTQVTVSS”: “low polyreactivity”; for “QVQLVESGGGLVQAGGRLRLRCAASGSIFYAYDRGWYRQAPGKERELVAAINWSGDSTYYADSVKGRFTISRDNAKNTVDLQMNSLKPEDTALYYCAAVSGSGDSGEYDYWGQGTQVTVSS”: “low polyreactivity”. “QVQLVESGGGLVQAGGSLRLSCAASGSIFSRYTMGWYRQAPGKERELVAAISSGGSTNYADSVKGRFTISRDNAKNTVYLQMNRLKPEDTAVYYCAARSYRYYYGFDYWGQGTQVTVSS”: the “polyreactivity (PSR sort gate)” value is “low polyreactivity”.

With “QVQRVESGGGLVQAGGSLRLSCAASGRIFPSNAMGWYRQAPGKERELVAGINTRSGRTYYADSVKGRFTNSRDNAKKTDYLQLNSLKPEDTAVYYCAAARAWPLNYWYVPYDYWGQGTQVTVSS”, the “polyreactivity (PSR sort gate)” value was “high polyreactivity”. With “QVQLVESGGGLVQAGGSLRLSCAASGSTFTRNAMGWYRQAPGKERELVAVISSRGGRTYYADSVKGRFTISRDNAKNTVYLQMNSLKPEDTAVYYCAARYVIPLGNSYDYWGQGTQVTVSS”, the “polyreactivity (PSR sort gate)” value is listed as “high polyreactivity”. On to “QVQLVESGGGLVQAGGSLRLSCAASGRTFRPYAMGWYRQAPGKERELVAAISYRGGITNYADSVKGRFTISRDNAKNTVYLQMNSLKPEDTAVYYCNRYAIWVSRFSDLDYWGQGTQVTVSS”, for which the “polyreactivity (PSR sort gate)” value is listed as “low polyreactivity”. With “QVQLVESGGGLVQAGGSLRLSCAASGSTFVRYAMGWYRQAPGKERELVAAISRRGSSTYYADSVKGRFTISRDNAKNTVYLQMNSRKPEDTADYYCAVDYSPGFDDYDYWGQGTHVTVSS”, the “polyreactivity (PSR sort gate)” value is “high polyreactivity”.

Take “QVQRVESGGGLVQAGGSLRLSCAASGRTFDSYAMGWYRPAPGKERELVAVITRGVRTYYADSVKGRFTISRDNAKNTVYLQMNSLKPEDTAVYYCAKERYNANYDTSLYDYWGQGTQVTVSS”: the “polyreactivity (PSR sort gate)” value is “low polyreactivity”.
